Here are results for seven substances from patent US10174097B2, “Specific A-beta species-binding peptides for the therapy and/or diagnosis of Alzheimer's dementia” (Forschungszentrum Juelich GmbH, priority 2015, dated 2019).

For assay [1], the target named is T1, Abeta fibrils (Homo sapiens, UniProt P05067).
T1 construct: Pre-incubated Abeta was co-incubated with the peptides
Briefly: Peptide microarray, binding of FITC Abeta fibrils to immobilized peptides. The settings on record: 1 hour at room temperature, control subtracted, averaged. On the procedure:
(§1) The procedure for identifying peptides that bind specifically to amyloid beta monomer or specifically to amyloid beta oligomers and for determining the binding specificity of peptides within the meaning of the present invention can thus be as follows. Peptide microarrays comprising various peptides immobilized on a surface, such as derivatives of D3, are each incubated with different species of Abeta (such as monomers, oligomers and fibrils) labeled with a fluorescent dye. A peptide microarray is incubated with only the fluorescent dye to serve as the control. So as to ensure the reproducibility of the results, the incubation of the peptide microarrays can be carried out at least three times for each species. The binding of the fluorescence-labeled Abeta to the immobilized peptides is detected by way of the fluorescent dye. The more Abeta binds to the peptide, the higher the fluorescence signal is. The measured fluorescence signals of the reproductions are standardized, and the […]. This avoids binding of the fluorescence-labeled Abeta via the dye. The binding signals of an Abeta species to a peptide are then averaged. So as to determine the binding specificity, the quotient of the species to which the peptide is to specifically bind and another species is found.
(§2) Pretreatment of the peptide microarray slides: • briefly dip 3× in ethanol (96%) and then wash with H2O (30 minutes) • briefly dry by way of centrifuging
Preparation of fibrils: • incubate Abeta over 3 days, centrifuge, discard supernatant and resuspend in buffer (repeat 3 times)
(§3) Carrying out the peptide microarray: • incubate with FITC Abeta monomers, oligomers, fibrils and FITC for 1 hour at room temperature • wash: TBS-T briefly 3× (only TBS-T buffer is replaced), 3×10 minutes in a flacon, 3×H2O, 3×10 minutes • dry by way of centrifugation • The binding of the fluorescence-labeled Abeta to the immobilized peptides is detected by way of the fluorescent dye using the microarray reader FLA800 from Fuji Film. The more Abeta binds to the peptide, the higher is the fluorescence signal. • carrier set mode: slides • resolution: 10 μm • scan mode: high sensitivity (slow): scan pixel at 200 mm/s • laser: 473 nm • filter: 530 DF 20 • photomultiplier tube (PMT) HV (%): 100 • images were stored as .tif files
(§4) The software, AIDA Metrix, from Raytest was used to evaluate the fluorescence signals:
(§5) To ensure the reproducibility of the results, the incubation of the peptide microarrays is carried out at least three times for each species.
(§6) The measured fluorescence signals of the reproductions are standardized using a median-based standardization, and the control was subtracted from the signal. This avoided the binding of the fluorescence-labeled Abeta via the dye.
(§7) The binding signals of an Abeta species to a peptide were averaged.

The target of assay [2] is T2, Abeta oligomers (Homo sapiens, UniProt P05067). Kind of assay: Peptide microarray, binding of FITC Abeta oligomers to immobilized peptides. The settings on record: 1 hour at room temperature, control subtracted, averaged. How it is done:
as §1, §2
(§8) Preparation of monomers and oligomers: • size exclusion chromatography according to Johansson et al. 2006 (Johansson, A.-S. et al. Physiochemical characterization of the Alzheimer's disease-related peptides Aβ1-42Arctic and Aβ1-42 wt. FEBS Journal 273, 2618-2630 (2006)). • oligomers were fractionated at 8-9 ml, monomers at 16-17 ml.
as §3, §4, §5, §6, §7

The next assay deals with T3, Abeta monomers (Homo sapiens, UniProt P05067).
T3 construct: incubate with FITC Abeta monomers, oligomers, fibrils and FITC for 1 hour at room temperature
T3 sequence (P05067 672-713 limits assumed): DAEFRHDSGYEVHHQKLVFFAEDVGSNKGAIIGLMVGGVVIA
Briefly: Peptide microarray, binding of FITC Abeta monomers to immobilized peptides. Particulars: for Binding signal to Abeta monomers: peptide microarray, FITC Abeta, 1 hour at room temperature, control subtracted, averaged; for Binding specificity monomer to fibrils: quotient binding signal to monomers / binding signal to fibrils; for Binding specificity monomer to oligomer: quotient binding signal to monomers / binding signal to oligomers. How it is done: as §1, §2, §8, §3, §4, §5, §6, §7
So as to determine the binding specificity, the quotient of the species to which the peptide is to specifically bind and another species is created.
Example: binding specificity of peptide X to Abeta monomers=binding signal of peptides X to monomers/binding signal of peptides X to oligomers.

Assay [3] has as its target T1, Abeta fibrils. Briefly: ThT assay, formation of ThT positive Abeta fibrils. The settings on record: 48 hours, co-incubation with Abeta, FIG. 3. Type of assay: biochemical.
The target in assay [4] is T2, Abeta oligomers. Briefly: QIAD method, elimination of Abeta oligomers (density gradient centrifugation, RP-HPLC). Type of assay: biochemical. Particulars: ratio of Abeta to peptide of 8:1, fractions 4-6, FIG. 2. On the procedure:
Using the QIAD method for the quantitative characterization of amyloid peptides and/or proteins in a sample, it was possible to quantify the properties of the substances. Pre-incubated Abeta was co-incubated with the peptides. The different Abeta species were separated by way of density gradient centrifugation and quantified in the individual fractions by way of RP-HPLC Abeta. The elimination of the Abeta oligomers in fractions 4-6 was analyzed.

[ ]: non-standard residue; d: D form. d(hArg) = N=C(N)NCCCC[C@@H](N)C(=O)O; dPhg = N[C@@H](C(=O)O)c1ccccc1

T2 sequence (P05067 672-713 limits assumed): as above
T1 sequence (P05067 672-713 limits assumed): as above

Turning to “rkr07rlvtkrnr (H-[dR][dK][dR][d(hArg)][dR][dL][dV][dT][dK][dR][dN][dR]-NH2; SMILES CC(C)C[C@@H](NC(=O)[C@@H](CCCNC(=N)N)NC(=O)[C@@H](CCCCNC(=N)N)NC(=O)[C@@H](CCCNC(=N)N)NC(=O)[C@@H](CCCCN)NC(=O)[C@H](N)CCCNC(=N)N)C(=O)N[C@@H](C(=O)N[C@@H](C(=O)N[C@H](CCCCN)C(=O)N[C@H](CCCNC(=N)N)C(=O)N[C@H](CC(N)=O)C(=O)N[C@H](CCCNC(=N)N)C(N)=O)[C@H](C)O)C(C)C) [ANK16, D3 derivative; 07: D-Homoarginine]”, in the assay with Abeta fibrils [1], the “Binding signal to Abeta fibrils” value was 1.5 rfu. Besides, the “Binding signal to Abeta oligomers” value with Abeta oligomers [2] amounted to 1.4 rfu. Also, in the assay with Abeta monomers, the “Binding signal to Abeta monomers” value was found to be 11.9 rfu, the “Binding specificity monomer to fibrils” value came out at 8.1 and the “Binding specificity monomer to oligomer” value is 8.6.
The like results for “rkrirl06yhikr (H-[dR][dK][dR][dI][dR][dL][dPhg][dY][dH][dI][dK][dR]-NH2; SMILES CC[C@@H](C)[C@@H](NC(=O)[C@@H](Cc1c[nH]cn1)NC(=O)[C@@H](Cc1ccc(O)cc1)NC(=O)[C@H](NC(=O)[C@@H](CC(C)C)NC(=O)[C@@H](CCCNC(=N)N)NC(=O)[C@H](NC(=O)[C@@H](CCCNC(=N)N)NC(=O)[C@@H](CCCCN)NC(=O)[C@H](N)CCCNC(=N)N)[C@H](C)CC)c1ccccc1)C(=O)N[C@H](CCCCN)C(=O)N[C@H](CCCNC(=N)N)C(N)=O) [ANK17, D3 derivative; 06: Phenylglycine (D)]” were, in that order, 1.9 rfu, 1.0 rfu, 4.7 rfu, 2.5 and 4.8.
Regarding “rkrirl06yhinr (H-[dR][dK][dR][dI][dR][dL][dPhg][dY][dH][dI][dN][dR]-NH2; SMILES CC[C@@H](C)[C@@H](NC(=O)[C@@H](Cc1c[nH]cn1)NC(=O)[C@@H](Cc1ccc(O)cc1)NC(=O)[C@H](NC(=O)[C@@H](CC(C)C)NC(=O)[C@@H](CCCNC(=N)N)NC(=O)[C@H](NC(=O)[C@@H](CCCNC(=N)N)NC(=O)[C@@H](CCCCN)NC(=O)[C@H](N)CCCNC(=N)N)[C@H](C)CC)c1ccccc1)C(=O)N[C@H](CC(N)=O)C(=O)N[C@H](CCCNC(=N)N)C(N)=O) [ANK2, D3 derivative; 06: Phenylglycine (D)]”, the “Binding signal to Abeta fibrils” value with Abeta fibrils [1] came to 0.8 rfu. For the same substance, the “ThT fluorescence during the entire measuring time period” value with Abeta fibrils [3] is “remains at the level of the first measured value”. Besides, the “Binding signal to Abeta oligomers” value in the assay with Abeta oligomers [2] is listed as 1.6 rfu. Moreover, the “Elimination of Abeta oligomers” value with Abeta oligomers [4] stood at 54±7%. In the assay with Abeta monomers, the “Binding signal to Abeta monomers” value was determined as 5.6 rfu, the “Binding specificity monomer to fibrils” value is given as 7.1 and the “Binding specificity monomer to oligomer” value came out at 3.4.
In the case of “rkrirl06yhwnr (H-[dR][dK][dR][dI][dR][dL][dPhg][dY][dH][dW][dN][dR]-NH2; SMILES CC[C@@H](C)[C@@H](NC(=O)[C@@H](CCCNC(=N)N)NC(=O)[C@@H](CCCCN)NC(=O)[C@H](N)CCCNC(=N)N)C(=O)N[C@H](CCCNC(=N)N)C(=O)N[C@H](CC(C)C)C(=O)N[C@@H](C(=O)N[C@H](Cc1ccc(O)cc1)C(=O)N[C@H](Cc1c[nH]cn1)C(=O)N[C@H](Cc1c[nH]c2ccccc12)C(=O)N[C@H](CC(N)=O)C(=O)N[C@H](CCCNC(=N)N)C(N)=O)c1ccccc1) [ANK3, D3 derivative; 06: Phenylglycine (D)]”, the “Binding signal to Abeta fibrils” value in the assay with Abeta fibrils [1] came out at 0.2 rfu. For the same substance, the “ThT fluorescence during the entire measuring time period” value with Abeta fibrils [3] was “remains at the level of the first measured value”. In the assay with Abeta oligomers [2], the “Binding signal to Abeta oligomers” value is given as 0.6 rfu. For the same substance, the “Elimination of Abeta oligomers” value with Abeta oligomers [4] was found to be 62±10%. Also, in the assay with Abeta monomers, the “Binding signal to Abeta monomers” value was determined as 3.6 rfu, the “Binding specificity monomer to fibrils” value is reported as 21.9 and the “Binding specificity monomer to oligomer” value was found to be 6.5.
Take “rkrirlvyhinr (H-[dR][dK][dR][dI][dR][dL][dV][dY][dH][dI][dN][dR]-NH2; SMILES CC[C@@H](C)[C@@H](NC(=O)[C@@H](Cc1c[nH]cn1)NC(=O)[C@@H](Cc1ccc(O)cc1)NC(=O)[C@H](NC(=O)[C@@H](CC(C)C)NC(=O)[C@@H](CCCNC(=N)N)NC(=O)[C@H](NC(=O)[C@@H](CCCNC(=N)N)NC(=O)[C@@H](CCCCN)NC(=O)[C@H](N)CCCNC(=N)N)[C@H](C)CC)C(C)C)C(=O)N[C@H](CC(N)=O)C(=O)N[C@H](CCCNC(=N)N)C(N)=O) [ANK1, D-enantiomeric 12-mer peptide derived from D3]”: the “Binding signal to Abeta fibrils” value in the assay with Abeta fibrils [1] is 1.3 rfu. Moreover, the “ThT fluorescence during the entire measuring time period” value with Abeta fibrils [3] was “remains at the level of the first measured value”. Besides, the “Binding signal to Abeta oligomers” value with Abeta oligomers [2] turned out to be 1.9 rfu. The “Elimination of Abeta oligomers” value in the assay with Abeta oligomers [4] was found to be 51±6%. In addition, in the assay with Abeta monomers, the “Binding signal to Abeta monomers” value was 6.6 rfu, the “Binding specificity monomer to fibrils” value came to 5.1 and the “Binding specificity monomer to oligomer” value was determined as 3.5.
Regarding “rpr07rlhtkkkr (H-[dR][dP][dR][d(hArg)][dR][dL][dH][dT][dK][dK][dK][dR]-NH2; SMILES CC(C)C[C@@H](NC(=O)[C@@H](CCCNC(=N)N)NC(=O)[C@@H](CCCCNC(=N)N)NC(=O)[C@@H](CCCNC(=N)N)NC(=O)[C@H]1CCCN1C(=O)[C@H](N)CCCNC(=N)N)C(=O)N[C@H](Cc1c[nH]cn1)C(=O)N[C@@H](C(=O)N[C@H](CCCCN)C(=O)N[C@H](CCCCN)C(=O)N[C@H](CCCCN)C(=O)N[C@H](CCCNC(=N)N)C(N)=O)[C@H](C)O) [ANK18, D3 derivative; 07: D-Homoarginine]”, the “Binding signal to Abeta fibrils” value with Abeta fibrils [1] is recorded as 0.1 rfu. Further, in the assay with Abeta oligomers [2], the “Binding signal to Abeta oligomers” value was 0.2 rfu. In the assay with Abeta monomers, the “Binding signal to Abeta monomers” value came out at 1.2 rfu, the “Binding specificity monomer to fibrils” value is reported as 9.4 and the “Binding specificity monomer to oligomer” value came to 7.0.
For “rprvrl06yhwnr (H-[dR][dP][dR][dV][dR][dL][dPhg][dY][dH][dW][dN][dR]-NH2; SMILES CC(C)C[C@@H](NC(=O)[C@@H](CCCNC(=N)N)NC(=O)[C@H](NC(=O)[C@@H](CCCNC(=N)N)NC(=O)[C@H]1CCCN1C(=O)[C@H](N)CCCNC(=N)N)C(C)C)C(=O)N[C@@H](C(=O)N[C@H](Cc1ccc(O)cc1)C(=O)N[C@H](Cc1c[nH]cn1)C(=O)N[C@H](Cc1c[nH]c2ccccc12)C(=O)N[C@H](CC(N)=O)C(=O)N[C@H](CCCNC(=N)N)C(N)=O)c1ccccc1) [ANK15, D3 derivative; 06: Phenylglycine (D)]”, in that order: 0.1 rfu, 0.6 rfu, 1.3 rfu, 12.2 and 2.2.
